Measurements from article PMC3380618.

Assays:
[1] = biological target: EcoRV K119A (UniProt P04390 2-245, K119A); experiment: filter binding
[2] = biological target: EcoRV endonuclease wild type (UniProt P04390 2-245); experiment: FRET

| Binder | Kd [1] [pM] | binding result [2] |
| --- | --- | --- |
| PMe-2 racemic (dsDNA, racemic Rp,Sp methylphosphonate at P-2, symmetric in both strands) DNA 1: TGTGTTGTAGGATATCCTACAGGT DNA 2: ACCTGTAGGATATCCTACAACACA | 1.1 |  |
| FRET 14 bp GATATC (dsDNA) DNA 1: AGAAGATATCTTGA DNA 2: TCAAGATATCTTCT |  | binds |
